3 molecules from US20170157250A1 (Genmab, published 2017) can be followed below.

The target of test [1] is T1, human AXL (full length, on cells) (human (Homo sapiens), UniProt P30530 26-894).
T1 construct: Used for transfected HEK293 cells and for AXL-positive A431 cells (endogenous AXL); also called hsAXL; Homo sapiens AXL
T1 sequence: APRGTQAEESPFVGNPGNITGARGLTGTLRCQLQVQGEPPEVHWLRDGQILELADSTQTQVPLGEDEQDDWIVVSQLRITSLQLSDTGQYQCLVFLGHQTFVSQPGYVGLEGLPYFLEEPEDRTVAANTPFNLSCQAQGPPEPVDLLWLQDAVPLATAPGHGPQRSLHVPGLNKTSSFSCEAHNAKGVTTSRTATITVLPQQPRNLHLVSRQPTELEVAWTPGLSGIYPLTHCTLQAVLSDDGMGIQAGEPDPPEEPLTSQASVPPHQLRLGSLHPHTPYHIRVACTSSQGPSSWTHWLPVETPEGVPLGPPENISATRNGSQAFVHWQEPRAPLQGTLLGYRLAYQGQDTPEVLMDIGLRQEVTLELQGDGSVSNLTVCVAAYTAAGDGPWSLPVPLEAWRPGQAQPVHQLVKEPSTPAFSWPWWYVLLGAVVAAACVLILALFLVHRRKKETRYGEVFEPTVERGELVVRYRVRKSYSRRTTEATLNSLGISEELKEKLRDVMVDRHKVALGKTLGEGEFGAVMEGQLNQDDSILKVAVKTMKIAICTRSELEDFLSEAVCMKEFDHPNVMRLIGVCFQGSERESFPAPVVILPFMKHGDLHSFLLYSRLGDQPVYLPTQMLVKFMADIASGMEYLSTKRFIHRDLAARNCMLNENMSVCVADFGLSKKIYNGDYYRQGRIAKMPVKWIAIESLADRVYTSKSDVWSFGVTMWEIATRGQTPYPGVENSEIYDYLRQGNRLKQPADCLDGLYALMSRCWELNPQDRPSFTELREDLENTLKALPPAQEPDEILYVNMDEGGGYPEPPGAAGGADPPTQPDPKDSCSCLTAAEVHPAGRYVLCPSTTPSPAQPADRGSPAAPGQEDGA
The test is described as follows: flow cytometry, HEK-293F cells transfected with full length human AXL, 4-fold dilutions of antibody, PE-anti-human IgG F(ab')2. For orientation: A flow cytometer gives signals particle by particle.

Test [2] deals with T1, human AXL (full length, on cells). The test is described as follows: flow cytometry, HEK293T cells transiently transfected with full-length human AXL, 4-fold dilutions, PE-anti-human IgG F(ab')2. As to the method: Binding curves were analyzed using non-linear regression (sigmoidal dose-response with variable slope) using GraphPad Prism V5.04 software (GraphPad Software, San Diego, Calif., USA).

B1: IgG1-AXL-107 (antibody, V domains shown)
VH: EVQLLESGGGLVQPGGSLRLSCAASGFTFSSYAMNWVRQAPGKGLEWVSTTSGSGASTYYADSVKGRFTISRDNSKNTLYLQMNSLRAEDTAVYYCAKIWIAFDIWGQGTMVTVSS
VL: not shown
notes: Expressed as IgG1,kappa
For B1, in test [1], the “EC50 (read off the curve)” value was ~0.2 µg/mL.

B2: IgG1-AXL-171 (antibody, V domains shown)
VH: EVQLLESGGGLVQPGGSLRLSCAASGFTFSSYAMSWVRQAPGKGLEWVSDISVSGGSTYYADSVKGRFTISRDNSKNTLYLQMNSLRAEDTAVYYCAKEGYIWFGESLSYAFDIWGQGTMVTVSS
VL: not shown
notes: Expressed as IgG1,kappa
B2: the concentration for a half-maximal effect (EC50 (read off the curve)) in test [1] is ~0.2 µg/mL.

B3: IgG1-AXL-183-A-vcDuo3 (other)
heavy chain: QVQLQQWGAGLLKPSETLSLTCAVYGGSFSGYYWSWIRQPPGKGLEWIGEINQSGSTNYNPSLKSRVTISVDTSKNQFSLKLSSVTAADTSVYYCASGNWDHFFDYWGQGTLVTVSS
light chain: DIQMTQSPSSVSASVGDRVTITCRASQGISSWLAWYQHKPGKAPKLLIYATSSLQSGVTSRFSGSGSGTDFTLTISSLQPEDFATYYCQQAKSFPWTFGQGTKVEIK
notes: The sheet writes '-A-vcDuo3', the text '-vcDuo3'; also called IgG1-AXL-183-vcDuo3; IgG1-AXL-183-vcDuostatin3
Take B3: the “EC50 (read off the curve)” value in test [2] is ~0.2 µg/mL.

For orientation: EC50 (read off the curve) means the concentration at which the effect is half-maximal. Read a high EC50 (read off the curve) as a less potent agent.
